# Data: the nanobody polyreactivity screen of Harvey et al. (2022)
# Experiment: yeast display, Sf9 membrane polyspecificity reagent, FACS + sequencing; frameworks hold sequencing errors
# Method in brief: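 A nanobody's polyreactivity label depends on the gate it was sorted from. Yeast display cells were stained with 10% biotinylated, detergent-solubilized Sf9 membrane reagent for 1 hour at 4 °C, enriched on streptavidin microbeads and sorted by FACS. The low and high (top ~1%) gates were set on anti-HA fluorescence for expression and streptavidin fluorescence for reagent binding.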
row,Sequence,polyreactivity (PSR sort gate)
1,QVQLVESGGGLVQAGGSLRLSCAASGRIFYRYAMGWYRQAPGKERELVAAITGSGGSTYYADSVKGRFTISRDNAKNTVYLQMNSLKPEDTAVYYCNAVYARYGSQGYEYWGHGTQVTVSS,high polyreactivity
2,QVQLVESGGGLVQAGGSLRLSCAASGRIFYRYAMGWYRQAPGKERELVATITSGGGTHYADSVKGRFTISRDNAKNTVYLQMNSLKPEDTAVYYCAAVQWYGYPYYSWGQGTQVTVSS,low polyreactivity
3,QVQLVESGGGLVQAGGSLRLSCAASGRIFYRYTMGRYRQAPGKERELVAAITSSSGSTYYADSVKGRFTISRDNAKNTVYLQMNSLKPEDTAVYYCAARIYHDIDTRSYYWGQGTQVTVSS,high polyreactivity
4,QVQLVESGGGLVQAGGSLRLSCAASGRIFYRYTMGWYRQAPGKERELVAAITRSGSSTRYADSVKGRFTISRDYAKNTVYLQMNSLKPEDTAVYYCATRVTSRTSGFDYWGQGTQVTVSS,high polyreactivity
5,QVQLVESGGGLVQAGGSLRLSCAASGRIFYRYVMGWYRQAPGKERELVAAISRGGGTNYADSVKGRFTISRDNAKNTVYLQMNSLKPEDTAVYYCAARGSPGAGYYWGQGTQVTVSS,high polyreactivity
6,QVQLVESGGGLVQAGGSLRLSCAASGRIFYSIAMGWYRQAPGKERELVAAISRSGVRTYYADSVKGRFTISRDNAKNTVYLQMNSLKPEDTAVYYCAAVIYGTTPQDEYDYWGQGTQVTVSS,low polyreactivity
7,QVQLVESGGGLVQAGGSLRLSCAASGRIFYSYAMGWYRQAPGKERELVAAITDSGGSTYADSVKGRFTISRDNAKNTVYLQMNSLKPEDTAVYADSTYNWYYYYWGQGTQVTVSS,low polyreactivity
8,QVQLVESGGGLVQAGGSLRLSCAASGRIFYSYAMGWYRQAPGKERELVATISSAGSTYYADAVKGRFTISRDNAKNTVYLQMNSLKPEDTAVYYCAARRPRRYGYWGQGTQVTVSS,high polyreactivity
9,QVQLVESGGGLVQAGGSLRLSCAASGRIFYTNAMGWYRPAPGKERELVAAITRSGGRTYYADSVKGRFTISRDNAKNTVYLQMNSLKPEDTGVYYCAKVGYGHTGMGYWGQGTQVTVSS,high polyreactivity
10,QVQLVESGGGLVQAGGSLRLSCAASGRIFYVNAMGWYRQAPGKERELVAGIDDGVTTYYAVSVKGRFTSSRDNAKNTVYLQMNSLKPEDTAVYYCAKETLVILIYDYWGQGTQVTVSS,low polyreactivity
11,QVQLVESGGGLVQAGGSLRLSCAASGRIFYVYAMGWYRQAPGKEMELVATITSSGEGTYYADSVMGRFTISRDNAKNTVYLQMNSLKPEDTAVYYCARRYFVRFVHPPYYYWGQGTQVTVSS,low polyreactivity
12,QVQLVESGGGLVQAGGSLRLSCAASGRIFYVYAMGWYRQAPGKEREFVAAITRRSGSTYYADSVKGRFTISRDNAKNTVYFQMKSVKPEDTAVYSCNARLKYAIPQVPPYDYWGQGTQVTVSS,high polyreactivity
13,QVQLVESGGGLVQAGGSLRLSCAASGRIFYVYAMGWYRQAPGKERELVAAITQSGGRTYYADSVKGRFTISRDNAKNTVYLQMNSLKPEDTAVYYCAATWLGSRNLVHITLYYWGQGTQVTVSS,low polyreactivity
14,QVQLVESGGGLVQAGGSLRLSCAASGRIFYVYAMGWYRQAPGKERELVAAITSGGRTDYADSVKGRFTISRDNAKNTVYLQMNSLKPEDTAVYYCAVRGSYRGWYDYWGQGTQVTVSS,high polyreactivity
15,QVQLVESGGGLVQAGGSLRLSCAASGRIFYVYAMGWYRQAPGKERELVAAITWRGGTTYYADSVKGRFTISRDNAKNTVYLQMNSLKPEDTAVYYCNAKYFRSYYSIEYDYWGQGTQVTVSS,low polyreactivity
16,QVQLVESGGGLVQAGGSLRLSCAASGRIFYVYAMGWYRQAPGKERELVPAITSSGGSTYYADSVKGRFTISRDTAKNTVYLQMNSLKPEDTAVYYCAARERAGYSRIRYNYWGQGTQVTVSS,high polyreactivity

row,Sequence,polyreactivity (PSR sort gate)
1,QVQLVESGGGLVQAGGSLRLSCAASGRIFYWNAMGWYRQAPGKERELVAAITYSTGSTYYADSVKGRFTISRDNAKNTVYLQMNSLKPEDTAVYYCAAEGPRGSWWALYDYWGQGTQVTVSS,low polyreactivity
2,QVQLVESGGGLVQAGGSLRLSCAASGRIFYWNAMGWYRQEPGKEREFVAAIRLSSGSTYYADSVKGRFTISRDNAKYTVYLQLNSLKPVDTAVYYCATRTYTYWGGSYPHFYWGQGTQVTVSS,high polyreactivity
3,QVQLVESGGGLVQAGGSLRLSCAASGRIFYYAMGWYRQAPGKERELVASITWSGGSTYYADSVKGRFTISRDNAKNTVYLQMNSLKPEDTAVYYCNADDLYTWYVVYNYWGQGTQVTVSS,low polyreactivity
4,QVQLVESGGGLVQAGGSLRLSCAASGRIFYYNAMGSYRQAPGKESELVAAIRRSGSRTYYADSVKGRFTISRDNSKNTVSLEMNSLKPEDTAVYYCAAKYASFAHHDSWGQGTQVTVSS,high polyreactivity
5,QVQLVESGGGLVQAGGSLRLSCAASGRIFYYNAMGWYRPAPGKERELVATITGSGGSTYYADSVKGRFTISRDNAKNTVYLQMNSLKPEDTAVYYCNATRWYYDFYKLDYWGQGTKVTVSS,low polyreactivity
6,QVQLVESGGGLVQAGGSLRLSCAASGRIFYYNAMGWYRQAPGKERELVAAIRGGGSTNYADSVKGRFTISRDNAKNTVYLQMNSLKPEDTAVYYCAAPWTQILDYWGQGTQVTVSS,low polyreactivity
7,QVQLVESGGGLVQAGGSLRLSCAASGRIFYYNAMGWYRQAPGKESELVAAIRYSGGSTSYADSVKGRFTISRDNAKNTVYLQMNSLKPEDTAVYYCAASTSNRWKLNYWGQGTQVTVSS,high polyreactivity
8,QVQLVESGGGLVQAGGSLRLSCAASGRIFYYNTMGWYRQAPGKERELVAAITRSGGSTYYADSVKGRFTISRDNAKNTVYLQMNSLKPEDTAVYYCAAQRRYDTADHGYWGQGTQVTVSS,high polyreactivity
9,QVQLVESGGGLVQAGGSLRLSCAASGRIFYYYAMGWYRQAPGKERELVAAISAGGGRTYYADSVKGRFTISRDNAKNTVYLQMNSLKPEDTAVYYCAVGRRIPGKYTSFGYWGQGTQVTVSS,high polyreactivity
10,QVQLVESGGGLVQAGGSLRLSCAASGRIFYYYAMGWYRQAPGKERELVAAITWSGVNTYYADSVKGRFTISRDNAKNTVYLQMNSLKPEDTAVYYCATDTGYPYSYDLYDSYYWGQGTQVTVSS,low polyreactivity
11,QVQLVESGGGLVQAGGSLRLSCAASGRIFYYYAMGWYRQAPGKERELVAGIDSGDSTNYADSVKGRFTISRDNAKNTVYLQMNSLKPEDTAVYYCAALHYGGYFSYYPYYYWGQGTQVTVSS,low polyreactivity
12,QVQLVESGGGLVQAGGSLRLSCAASGRIFYYYAMGWYRQAPGKERELVATISSSGGSTYYADSVRGRFTISRDNAKNTVYLQMNSLKPEDTAVYYCAARVPLWSRGRTTWPKSQYEYWGQGTQVTVSS,high polyreactivity
13,QVQLVESGGGLVQAGGSLRLSCAASGRIFYYYAMGWYRQAPGKERELVATITTTGNTYYADSVKGRFTISRDNAKNTVYLQMNSLKPEDTAVYYCNAGWDLVYGYYPRRKNFDYWGQRTQVTVSS,high polyreactivity
14,QVQLVESGGGLVQAGGSLRLSCAASGRIFYYYAMGWYRQAPGKESELVAAISGGGGRTYYADSVKGRFTISRDNAKHTVYLQMNSLKPEDTAVYYCNADYFYRTVNQRYDYWGQGTQVTVSS,high polyreactivity
15,QVQLVESGGGLVQAGGSLRLSCAASGRIFYYYDMGWNRQAPGQERELVAAISFSDGITYYADSVKGRFTISRDNAKNTVYLQMNSLKPEDTAVYYCAAVYRYRNRREYDYWGQGTEVTVSS,high polyreactivity
16,QVQLVESGGGLVQAGGSLRLSCAASGRIGYYAMGWYRQAPGKERELVATISRGGSTKYADSVKGRFTISRDNAKNTVYLQMNSLKPEDTAVYYCAAARAPRYDYWGQGTQVTVSS,high polyreactivity
